# Legend:
# Test in all cases: IEDB peptide-MHC binding, purified MHC/direct/fluorescence; filed as Kd, often an IC50 or EC50 that approximates it; ≥ and ≤ were set here for values at or beyond the usual limits of such assays
# [1] = molecular target: HLA-B*07:02
# [2] = molecular target: HLA-B*40:01
# [3] = molecular target: HLA-A*24:03
# [4] = molecular target: HLA-A*01:01
# [5] = molecular target: HLA-B*08:01
# [6] = molecular target: HLA-A*03:01
# [7] = molecular target: HLA-A*02:01
# [8] = molecular target: HLA-B*15:01
# [9] = molecular target: HLA-A*26:01
# [10] = molecular target: HLA-B*35:01; conditions: source organism: Yellow fever virus
# [11] = molecular target: HLA-B*58:01
# [12] = molecular target: HLA-B*27:05
# [13] = source organism: Yellow fever virus
# [14] = source organism: dengue virus type 2
# [15] = source organism: dengue virus type 1
# [16] = source organism: dengue virus type 4
# [17] = source organism: dengue virus type 3
sequence,measurement,setting,value
AATIRVLAL,Kd,[1]; [13],204 nM
AELTGYGTV,Kd,[2]; [14],21 nM
AEMGANLCV,Kd,[2]; [13],2 nM
AEVRLATML,Kd,[2]; [13],24 nM
AFHGLDVKF,Kd,[3]; [13],14 nM
AIDLDPVVY,Kd,[4]; [15],25 nM
AIHPFALLL,Kd,[5]; [13],≥ 20000 nM
ALNTITNLK,Kd,[6]; [13],245 nM
AMLHWSLIL,Kd,[7]; [13],114 nM
AQAVMEMTY,Kd,[8]; [13],56 nM
AQEDDQYVF,Kd,[8]; [16],81 nM
AQMWSLMYF,Kd,[2]; [16],32 nM
ATYGWNLVK,Kd,[6]; [16],3 nM
AVSMANIFR,Kd,[6]; [15],52 nM
AVSRGTAKL,Kd,[1]; [13],6770 nM
CAHWKEAKM,Kd,[5]; [14],7050 nM
CPTQGEATL,Kd,[1]; [15],821 nM
DSDDWLNKY,Kd,[4]; [13],≤ 1 nM
DVVPMVTQM,Kd,[9]; [14],2 nM
EAMDTISVF,Kd,[10],≤ 1 nM
same,Kd,[9]; [13],7 nM
EAPEMPALY,Kd,[9]; [13],594 nM
EEEQTLTIL,Kd,[2]; [14],2 nM
EISGSSARY,Kd,[4]; [13],95 nM
same,Kd,[9]; [13],3 nM
ELKGMSYAM,Kd,[5]; [17],132 nM
ESDPEGALW,Kd,[4]; [15],57 nM
ESWIVDRQW,Kd,[11]; [13],123 nM
ETACLSKAY,Kd,[10],288 nM
same,Kd,[9]; [13],8 nM
ETLETLLLL,Kd,[9]; [14],347 nM
EVDQTKIQY,Kd,[4]; [13],166 nM
same,Kd,[9]; [13],3680 nM
EVHTWTEQY,Kd,[9]; [15],2 nM
EVRLATMLF,Kd,[5]; [13],1750 nM
EYTDYMPSM,Kd,[9]; [14],1820 nM
FCIKVLNPY,Kd,[9]; [16],≥ 20000 nM
FCVKVLAPY,Kd,[10],10 nM
same,Kd,[9]; [13],427 nM
FLILGMLLM,Kd,[9]; [13],≥ 20000 nM
FRKGSSIGK,Kd,[12]; [16],52 nM
FRKKRLTIM,Kd,[5]; [14],14 nM
FTTNIWMKF,Kd,[9]; [16],117 nM
FVRNPFFAV,Kd,[7]; [13],1250 nM
GEDGCWYGM,Kd,[2]; [15],10 nM
GFLNEDHWF,Kd,[3]; [14],34 nM
GFMNEDHWF,Kd,[3]; [15],17 nM
GLFGGLNWI,Kd,[7]; [13],≤ 1 nM
GMGEAAAIF,Kd,[8]; [15],29 nM
GMMGGLWKY,Kd,[8]; [13],32 nM
GPAEARKVC,Kd,[1]; [13],117 nM
GPSLRTTTV,Kd,[1]; [15],3 nM
GSRAYRNAL,Kd,[5]; [13],694 nM
GTGDSRLTY,Kd,[4]; [13],75 nM
same,Kd,[9]; [13],≥ 20000 nM
GTHPFSRIR,Kd,[6]; [13],859 nM
GTTVVKVKY,Kd,[4]; [16],≥ 20000 nM
GVEGIGLQY,Kd,[4]; [13],48 nM
GVQGFIFFF,Kd,[4]; [13],≥ 20000 nM
HEVNGTWMI,Kd,[2]; [13],10 nM
HLKRLWKML,Kd,[5]; [13],16 nM
HPGFTILAL,Kd,[1]; [17],8 nM
HSEEGSRAY,Kd,[4]; [13],14 nM
same,Kd,[10],3 nM
ICSAVPSHW,Kd,[11]; [14],394 nM
ICSAVPVHW,Kd,[11]; [17],76 nM
IEEFGTGVF,Kd,[2]; [13],9 nM
IFFFLFNIL,Kd,[3]; [13],19 nM
IHTVFGSAF,Kd,[3]; [13],373 nM
IIMDEAHFL,Kd,[7]; [13],3 nM
ILRNPGFAL,Kd,[1]; [16],2 nM
ILTDGPERV,Kd,[7]; [17],4 nM
IMAVGLVSL,Kd,[7]; [16],93 nM
IMGAVLIWV,Kd,[7]; [13],59 nM
ISYIMLIFF,Kd,[11]; [13],1050 nM
ITAAAWYLW,Kd,[11]; [14],46 nM
ITAHLKRLW,Kd,[11]; [13],46 nM
KAYAQMWSL,Kd,[11]; [16],10 nM
KCRLRMDKL,Kd,[5]; [14],6920 nM
KEVSGVKGF,Kd,[2]; [13],109 nM
KIMKVVNRW,Kd,[11]; [13],37 nM
KKKLRPRWL,Kd,[5]; [17],12700 nM
KLEGKIVQY,Kd,[8]; [15],126 nM
KLQLKGMSY,Kd,[8]; [14],111 nM
KMDIGVPLL,Kd,[7]; [14],≤ 1 nM
KMLDPRQGL,Kd,[7]; [13],39 nM
KQIANELNY,Kd,[8]; [17],113 nM
KQLGQVMLL,Kd,[12]; [16],129 nM
KRAAAGIMK,Kd,[12]; [14],75 nM
KRVVASLMR,Kd,[12]; [13],107 nM
KSAAIDGEY,Kd,[4]; [17],50 nM
KSAHGSPTF,Kd,[11]; [13],36 nM
KTALTGAMR,Kd,[6]; [13],147 nM
KTFDTEYQK,Kd,[6]; [17],198 nM
KTFVDLMRR,Kd,[6]; [14],80 nM
KTFVELMRR,Kd,[6]; [16],45 nM
KTHESHLVR,Kd,[6]; [13],678 nM
KTNDRKWCF,Kd,[11]; [13],58 nM
KTWGKNLVF,Kd,[11]; [13],19 nM
KVASAGISY,Kd,[6]; [16],85 nM
KVVNRWLFR,Kd,[6]; [13],218 nM
KWKKKLNQL,Kd,[5]; [17],≥ 20000 nM
LAKRFSKGL,Kd,[5]; [15],4480 nM
LAVMGDAAW,Kd,[11]; [13],3 nM
same,Kd,[10],≤ 1 nM
LEDGIYGIF,Kd,[2]; [13],≤ 1 nM
LEFEALGFL,Kd,[2]; [17],≤ 1 nM
LEFFLMVLL,Kd,[2]; [15],177 nM
LLLTLLATV,Kd,[7]; [14],43 nM
LVAGGLLTV,Kd,[7]; [14],≥ 20000 nM
LVGAAIHPF,Kd,[10],29 nM
same,Kd,[3]; [13],575 nM

# — the Immune Epitope Database (IEDB)
